Test results reported in paper PMC3360035.

Target: Wild-type human γD-crystallin (human) (UniProt P07320)
Sequence (P07320 whole entry): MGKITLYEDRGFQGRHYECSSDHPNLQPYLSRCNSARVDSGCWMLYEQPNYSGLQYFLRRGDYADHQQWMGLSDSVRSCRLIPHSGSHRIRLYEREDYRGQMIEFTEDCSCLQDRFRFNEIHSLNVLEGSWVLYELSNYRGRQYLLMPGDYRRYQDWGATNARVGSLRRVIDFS

**Q.** With “αB-crystallin, wild type (from UniProt P02511 1-175) (natural protein)” as the substance, how does the suppression of aggregation on dilution out of 5 M GdnHCl (from maximum A350), αB in 5-fold molar excess read?
**A.** 72%
